Results as given in the supplement of paper PMC10567573.
± gives the standard deviation.

Assay: protein stability index of a GFP-peptide fusion (GPS, HEK-293T) (PSI 1-6); higher = more stable
[1] = treatment: DMSO, c terminus: a fixed tail appended
[2] = treatment: MLN4924 1 uM, 8 h, c terminus: a fixed tail appended
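Also: 24-mer peptide tiles fused after GFP, lentivirally expressed, FACS-sorted into six equal bins by GFP/DsRed ratio, decoded by Illumina sequencing, PSI is the read-weighted mean bin number.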

Row | Sequence | protein stability index [1] | protein stability index [2] | protein stability index (treatment: DMSO, c terminus: native) | protein stability index (treatment: MLN4924 1 uM, 8 h, c terminus: native)
1 | GHNDWVMDVAISNNKKWILSASKD [WDR88] | 3.19 ± 0.33 | 3.22 ± 0.59 |  | 
2 | GAVFNGITLLILAELLIFSVPIVY [RTN3] | 3.33 ± 0.037 | 2.9 ± 0.39 |  | 
3 | VYSLEPRLCGGKGGFGSMLRALGA [SDE2] | 2.24 ± 0.45 | 2.1 ± 0.081 |  | 
4 | TPYKPPAGRAAAPELSYRVCVGSD [MYORG] | 3.94 ± 0.24 | 4.13 ± 0.27 |  | 
5 | EFSVPFTEMKLRPRNFRSPAGGG [TNXB] |  |  | 3.4 ± 1.1 | 3.09 ± 1.1
6 | QPRKKYVQRKSDFDQTVFQEVFEP [NETO1] | 4.14 ± 0.22 | 4.26 ± 0.2 |  | 
7 | NTNTLKVPECRLAEDLGNLWENTR [SPOPL] | 3.22 ± 0.26 | 3.41 ± 0.34 |  | 
8 | LSASKDRTMRLWNIEEIDEIPLVI [WDR88] | 2.19 ± 0.21 | 2.39 ± 0.14 |  | 
9 | QEGWIHHLARHAVACFLTRGDLWI [CRY1] | 3.05 ± 0.48 | 2.89 ± 0.44 |  | 
10 | KIREQNLQDIKTAGPQSQVLCGVV [ADD1] | 3.15 ± 0.43 | 3.37 ± 0.24 |  | 
11 | STLPSLREEEEQVRAHAPRGNAPP [KCNG1] | 4.43 ± 0.23 | 4.91 ± 0.35 |  | 
12 | QGHPPSLFPPKAKSNQPKSLEDLI [ATE1] | 4.25 ± 0.081 | 4.19 ± 0.16 |  | 
13 | YLTNCEKLSAKSLQTLRSFSHTLV [ZER1] | 2.3 ± 0.16 | 2.24 ± 0.38 |  | 
14 | EERASLAGNRNSMVIHIPEEPRPS [KCNK9] | 4.82 ± 0.13 | 4.94 ± 0.38 |  | 
15 | MHPKETTRQLSLAVKDGLIVETLT [ZMYND11] | 3.27 ± 0.28 | 3.36 ± 0.24 |  | 
16 | KKRTEQEETIASLQMEVCRLKKEE [CEP70] | 5.22 ± 0.2 | 5.19 ± 0.38 |  | 
17 | MQDYVRTGTYQRAILQNHTDFKDK [CARM1] | 3.92 ± 0.32 | 4.18 ± 0.29 |  | 
18 | VVAVDRDSGQNAWLSYRLLKASEP [PCDHGA10] | 2.56 ± 0.17 | 2.6 ± 0.31 |  | 
19 | ASLGEKRDHHSTHYRASEEEPEYG [CHGB] | 5.37 ± 0.24 | 5.34 ± 0.11 |  | 
20 | GREYPDAQGFAADVRLMFSNCYKY [BRD3] | 2.38 ± 0.21 | 2.59 ± 0.29 |  | 
21 | QSSQRMRQNLKLLVEETSCQQNMI [CEP70] | 3.65 ± 0.16 | 3.66 ± 0.16 |  | 
22 | QIHLDVDNDRTTPSDLDSTGNSLN [DLC1] | 5.19 ± 0.25 | 5.28 ± 0.18 |  | 
23 | SNLCCFIPGKVIDEIYRVLRYVNS [FBXO28] | 2 ± 0.66 | 2.38 ± 0.26 |  | 
24 | QDAPLSDCTETIEGLELTEQTFSP [ADD1] | 5.46 ± 0.21 | 5.3 ± 0.23 |  | 
25 | KTEITDLRRTMQELEIELQSQLSM [KRT15] | 3.79 ± 0.39 | 3.5 ± 0.24 |  | 
26 | HKLDLNTREWTQLKPNNLSCDLPE [KLHDC10] | 4.4 ± 0.12 | 4.41 ± 0.3 |  | 
27 | TFIVSCKFSPDGKYVVSGFDVDHG [WDR88] | 2.79 ± 0.39 | 2.81 ± 0.53 |  | 

Row | Sequence | protein stability index [1] | protein stability index [2] | protein stability index (treatment: DMSO, c terminus: native) | protein stability index (treatment: MLN4924 1 uM, 8 h, c terminus: native)
28 | LPIKIAAIIASLTFLYTLLREVIH [STEAP1] | 2.53 ± 0.41 | 1.82 ± 0.64 |  | 
29 | RLLLAGAEVQAKLENAEVLELTVR [HES6] | 2.37 ± 0.38 | 2.63 ± 0.49 |  | 
30 | KQLLSNKELILDKVYTHPKWNTQT [ZC2HC1C] | 2.79 ± 0.14 | 3.15 ± 0.23 |  | 
31 | RKEAYGKPVDIWACGVILYILLVG [CAMK2B] | 2.95 ± 0.76 | 2.73 ± 0.7 |  | 
32 | MKNLLFSEMWDIFLVRLLMAMAVM [MFSD9] | 3.14 ± 0.48 | 3.22 ± 0.77 |  | 
33 | QKLADLRSLNEEHSKQYRCLSFQP [VDR] | 3.07 ± 0.12 | 3.24 ± 0.17 |  | 
34 | QDLCCRTIVSCTPVHLVDKLPLPS [RAB40A] | 2.34 ± 0.26 | 2.39 ± 0.35 |  | 
35 | YVALFPCNECAKLIIQAGIKEVIF [DCTD] | 2.73 ± 1.2 | 2.96 ± 0.54 |  | 
36 | ESKVKDILSKVQKNHVGKPLLKMD [FAM98B] | 3.49 ± 0.17 | 3.79 ± 0.19 |  | 
37 | IEAAVQDRLNEQEGVPSVFNPPPS [FAF2] | 5.06 ± 0.17 | 5.04 ± 0.15 |  | 
38 | KSQTACLPFVLAAAVSRKKKRRMG [EHMT1] | 3.38 ± 0.31 | 3.61 ± 0.3 |  | 
39 | PLELMRTKLQAQHVSYRELGACVR [SLC25A39] | 2.67 ± 0.24 | 2.92 ± 0.16 |  | 
40 | LARADLEMQIENLKEELAYLKKNH [KRT17] | 3.12 ± 0.35 | 3.21 ± 0.45 |  | 
41 | QTLQAMDSEDFPQAAKQIKDGVTM [FSD1] | 4.97 ± 0.26 | 5.04 ± 0.083 |  | 
42 | RLSVELTSSLFRTEPMAWNETADL [CTNNB1] | 2.83 ± 0.2 | 3.03 ± 0.31 |  | 
43 | AAVEGSGGSGGGSHHHHQSRGACT [KCNA4] | 4.97 ± 0.16 | 4.7 ± 0.71 |  | 
44 | RLEREERNQTQVLRQQQDEAYLAS [FAF2] | 4.96 ± 0.21 | 5 ± 0.15 |  | 
45 | FFFRHGHRGLLTMQLKSPMPSSTT [SPAG8] | 2.14 ± 0.26 | 2 ± 0.23 |  | 
46 | CVQCKMPVCYQCLEEGKHSSHEVK [TRIM9] | 4.08 ± 0.44 | 4.19 ± 0.45 |  | 
47 | HNYNILIATLRVALPSVMRFCCCV [MCOLN1] | 2.83 ± 0.59 | 2.9 ± 0.48 |  | 
48 | FVKYLIRPQPWLEKEIEEATKKLG [FUT8] | 2.31 ± 0.29 | 2.47 ± 0.17 |  | 
49 | NLDKMADNLLAAADKYALERLKVM [SPOPL] | 3.1 ± 0.44 | 3.04 ± 0.42 |  | 
50 | NQAGYFMLPTVITDIKDESCCMTE [ALDH8A1] | 3.5 ± 0.13 | 3.71 ± 0.43 |  | 
51 | SRPSAPFTEASMMMSLTKLADKEL [ESR2] | 3.97 ± 0.4 | 3.97 ± 0.068 |  | 
52 | VQRLTSRAARDYKIQNHGHRVLQR [FCHSD1] | 3.33 ± 0.08 | 3.44 ± 0.1 |  | 
53 | LSLDNSPLLQSIHQLDFVQVKASS [TRIM9] | 2.73 ± 0.17 | 2.98 ± 0.42 |  | 
